Assay results reported in patent publication US20130064823A1 (Novartis, published 2013).
Substitutions are numbered along the chain they refer to. Each block holds one binder with its values, some of them ahead of it.

Columns and labels:
cynomolgus LRP6 = cynomolgus LRP6 (cynomolgus, UniProt A0A2K5VCG3 20-1602); test: FACS on HEK293T/17 cells transiently transfected with cynomolgus LRP6 (Example 3); Fab or IgG format not stated on the sheet
[1] = biological target: T1, LRP6-Fc (R&D Systems, catalog No: 1505-LR) (human, UniProt O75581 20-1370); test: ELISA on plates coated with LRP6-Fc
T1 construct: also called 360 KD homodimer antigen LRP6-Fc
T1 sequence (looked up): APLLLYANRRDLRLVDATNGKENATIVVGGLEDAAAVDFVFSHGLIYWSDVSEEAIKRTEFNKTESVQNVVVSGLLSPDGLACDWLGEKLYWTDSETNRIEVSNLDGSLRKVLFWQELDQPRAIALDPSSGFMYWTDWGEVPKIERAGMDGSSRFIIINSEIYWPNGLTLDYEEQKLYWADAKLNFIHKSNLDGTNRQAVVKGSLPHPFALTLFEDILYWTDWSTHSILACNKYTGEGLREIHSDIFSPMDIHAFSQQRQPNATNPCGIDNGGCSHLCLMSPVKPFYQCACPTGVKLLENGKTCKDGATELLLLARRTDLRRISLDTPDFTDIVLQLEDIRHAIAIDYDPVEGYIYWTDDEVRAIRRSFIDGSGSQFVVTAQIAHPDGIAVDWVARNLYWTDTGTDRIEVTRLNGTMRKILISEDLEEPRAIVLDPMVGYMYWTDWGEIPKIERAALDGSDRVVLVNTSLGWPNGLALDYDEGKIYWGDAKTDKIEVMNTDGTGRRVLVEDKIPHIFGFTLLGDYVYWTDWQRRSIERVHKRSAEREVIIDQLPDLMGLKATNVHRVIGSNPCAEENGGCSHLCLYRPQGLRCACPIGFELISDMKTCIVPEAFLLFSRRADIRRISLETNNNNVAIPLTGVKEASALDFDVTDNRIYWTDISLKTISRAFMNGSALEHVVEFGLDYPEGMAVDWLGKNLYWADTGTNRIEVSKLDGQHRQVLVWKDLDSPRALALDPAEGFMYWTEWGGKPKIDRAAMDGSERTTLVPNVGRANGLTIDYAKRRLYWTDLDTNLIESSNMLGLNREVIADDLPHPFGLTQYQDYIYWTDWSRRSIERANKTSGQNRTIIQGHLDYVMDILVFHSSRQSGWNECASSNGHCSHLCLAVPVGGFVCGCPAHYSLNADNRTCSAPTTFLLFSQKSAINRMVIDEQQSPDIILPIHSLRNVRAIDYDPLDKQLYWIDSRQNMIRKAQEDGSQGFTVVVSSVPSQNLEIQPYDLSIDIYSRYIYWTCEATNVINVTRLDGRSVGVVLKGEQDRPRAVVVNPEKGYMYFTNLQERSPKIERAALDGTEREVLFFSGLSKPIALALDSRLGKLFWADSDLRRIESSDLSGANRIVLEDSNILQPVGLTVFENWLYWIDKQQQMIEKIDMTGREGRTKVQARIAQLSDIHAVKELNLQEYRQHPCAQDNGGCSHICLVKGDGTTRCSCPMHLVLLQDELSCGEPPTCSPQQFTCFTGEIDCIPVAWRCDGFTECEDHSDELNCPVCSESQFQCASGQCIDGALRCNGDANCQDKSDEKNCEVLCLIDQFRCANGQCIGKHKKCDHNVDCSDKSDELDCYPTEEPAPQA
Protocol: Binding EC₅₀ of scFvs against LRP6 protein was measured by ELISA. Maxisorp plate was coated with LRP6-Fc (R&D Sysytems, catalog No: 1505-LR) at 3 μg/ml at 4° C. overnight. The plate was blocked with 50 μl of 2% BSA for one hour, and washed five times with the wash solution. The samples were diluted with 1% BSA accordingly. The plate was incubated at RT for 1 h, and washed for 3 times. Detection was done by adding 50 μl pentallis-HRP (Qiagen Mat. No. 1014992) at 1:2000 dilution in 1% BSA, incubated at RT for 1 h, and washed 3 times. 50 μl of substrate reagent A plus B (R&D systems) was added, then incubated for 5-20 min depending on the color. The reaction was stopped by adding 25 μl of the stop solution, followed by plate reading at 450 nm.
Affinity analysis ELISA EC₅₀ was carried out for both scFv08168 and scFv06475 wild type and variants.

human LRP6 = human LRP6 (human, UniProt O75581 20-1613); test: cell-based or functional assay

Sequence of cynomolgus LRP6 (A0A2K5VCG3 entry or part of it): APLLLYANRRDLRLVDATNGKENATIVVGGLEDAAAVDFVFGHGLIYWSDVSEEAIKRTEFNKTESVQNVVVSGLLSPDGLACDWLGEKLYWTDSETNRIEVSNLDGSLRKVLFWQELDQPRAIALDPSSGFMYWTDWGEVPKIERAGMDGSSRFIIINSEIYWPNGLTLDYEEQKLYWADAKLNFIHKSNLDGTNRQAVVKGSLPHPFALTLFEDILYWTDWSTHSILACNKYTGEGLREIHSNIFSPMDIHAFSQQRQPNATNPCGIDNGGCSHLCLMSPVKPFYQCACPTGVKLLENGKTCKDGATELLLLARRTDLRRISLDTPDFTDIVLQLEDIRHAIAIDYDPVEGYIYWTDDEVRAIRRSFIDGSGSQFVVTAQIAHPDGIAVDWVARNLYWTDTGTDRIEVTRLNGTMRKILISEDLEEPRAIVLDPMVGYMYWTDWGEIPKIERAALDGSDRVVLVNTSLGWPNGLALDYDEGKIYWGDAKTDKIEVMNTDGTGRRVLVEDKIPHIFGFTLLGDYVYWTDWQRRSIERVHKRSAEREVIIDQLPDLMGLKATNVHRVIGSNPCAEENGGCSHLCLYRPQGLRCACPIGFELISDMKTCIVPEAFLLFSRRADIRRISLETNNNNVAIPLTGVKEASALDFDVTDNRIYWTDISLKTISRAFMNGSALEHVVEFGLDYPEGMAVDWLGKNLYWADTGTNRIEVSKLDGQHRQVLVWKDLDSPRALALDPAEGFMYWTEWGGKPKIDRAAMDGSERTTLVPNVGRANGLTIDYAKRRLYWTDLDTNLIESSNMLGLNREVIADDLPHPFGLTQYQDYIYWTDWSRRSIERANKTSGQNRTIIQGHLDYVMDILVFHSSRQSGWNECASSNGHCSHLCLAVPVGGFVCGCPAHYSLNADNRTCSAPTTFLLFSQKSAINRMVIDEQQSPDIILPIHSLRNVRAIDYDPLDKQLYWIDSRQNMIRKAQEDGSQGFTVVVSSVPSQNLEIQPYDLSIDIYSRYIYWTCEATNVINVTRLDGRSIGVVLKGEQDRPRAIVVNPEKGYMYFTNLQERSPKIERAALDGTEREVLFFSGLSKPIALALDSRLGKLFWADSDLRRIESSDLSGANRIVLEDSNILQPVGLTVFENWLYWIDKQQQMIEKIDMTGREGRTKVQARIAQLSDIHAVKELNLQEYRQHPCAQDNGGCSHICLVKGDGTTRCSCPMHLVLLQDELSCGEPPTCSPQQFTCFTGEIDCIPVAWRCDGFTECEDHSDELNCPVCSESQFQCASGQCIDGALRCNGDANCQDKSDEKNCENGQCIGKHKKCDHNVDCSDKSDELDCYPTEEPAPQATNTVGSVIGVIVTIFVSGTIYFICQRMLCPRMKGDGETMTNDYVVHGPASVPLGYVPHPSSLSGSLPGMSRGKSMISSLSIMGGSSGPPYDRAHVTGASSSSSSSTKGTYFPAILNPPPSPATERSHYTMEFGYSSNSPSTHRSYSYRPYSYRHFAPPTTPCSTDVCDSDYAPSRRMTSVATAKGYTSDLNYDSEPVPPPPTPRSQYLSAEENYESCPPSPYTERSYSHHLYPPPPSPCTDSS

EC50 (cynomolgus LRP6): 0.3 nM
B1: MOR08545 Fab (Fab, V domains shown)
VH: QVQLVESGGGLVQPGGSLRLSCAASGFTFSVNGMHWVRQAPGKGLEWVSVIDGMGHTYYADSVKGRFTISRDNSKNTLYLQMNSLRAEDTAVYYCARYDYIKYGAFDPWGQGTLVTVSS
VL: DIELTQPPSVSVAPGQTARISCSGDNIGSKYVHWYQQKPGQAPVLVIYGDSNRPSGIPERFSGSNSGNTATLTISGTQAEDEADYYCTRTSTPISGVFGGGTKLTVLG
notes: also called Propeller 1 anti-LRP6 Fab MOR08545

EC50 (cynomolgus LRP6): 0.52 nM
B2: MOR08473 Fab (Fab, V domains shown)
VH: QVQLVESGGGLVQPGGSLRLSCAASGFTFSSYGMSWVRQAPGKGLEWVSNISNDGHYTYYADSVKGRFTISRDNSKNTLYLQMNSLRAEDTAVYYCARFQASYLDIMDYWGQGTLVTVSS
VL: DIELTQPPSVSVAPGQSITISCSGDNIGSKYVHWYQQKPGQAPVLVIYNDSNRPSGIPERFSGSNSGNTATLTISGTQAEDEADYYCQAWGDNGTRVFGGGTKLTVLG
notes: also called Propeller 3 anti-LRP6 Fab MOR08473

EC50 [1]: 1.15 nM | IC50 by STF assay for Wnt1 inhibition (human LRP6): 4.81 nM
B4: scFv08168-D7 (scFv, V domains shown)
VH: QVQLVESGGGLVQPGGSLRLSCAASGFTFSDYVMNWVRQAPGKGLEWVSGISWSGVNTHYADSVKGRFTISRDNSKNTLYLQMNSLRAEDTAVYYCARLGATANNIRYKFMDVWGQGTLVTVSS
VL: DIELTQPPSVSVAPGQTARITCSGDSLRNKVYWYQQKPGQAPVLVIYKNNRPSGIPERFSGSNSGNTATLTISGTQAEDEADYYCQSYDGQKSLVFGGGTKLTVL

EC50 [1]: 1.68 nM
B10: scFv08168-D2 (scFv)
chain: QVQLVESGGGLVQPGGSLRLSCAASGFTFSDYVFNWVRQAPGKGLEWVAGISWSGVNTHYADSVKGRFTISRDNSKNTLYLQMNSLRAEDTAVYYCARLGATANNIRYKFMDVWGQGTLVTVSSGGGGSGGGGSGGGGSDIELTQPPSVSVAPGQTARISCSGDSLRNKVYWYQQKPGQAPVLVIYKNNRPSGIPERFSGSNSGNTATLTISGTQAEDEADYYCQSYDGQKSLVFGGGTKLTVL

EC50 [1]: 1.22 nM
B11: scFv08168-D5 (scFv)
chain: B10 chain with F34M, A49S, H59Y

Continued, binder first:

B3: MOR06706 Fab (Fab, V domains shown)
VH: QVQLVESGGGLVQPGGSLRLSCAASGFTFSDYAIHWVRQAPGKGLEWVSGISYSGSSTHYADSVKGRFTISRDNSKNTLYLQMNSLRAEDTAVYYCARGSHGNIMAKRYFDFWGQGTLVTVSS
VL: DIELTQPPSVSVAPGQTARISCSGDNIRKKYVYWYQQKPGQAPVLVIYEDSKRPSGIPERFSGSNSGNTATLTISGTQAEDEADYYCSTADSGINNGVFGGGTKLTVL
notes: also called Propeller 1 anti-LRP6 Fab MOR06706
EC50 (cynomolgus LRP6): 0.46 nM

B5: scFv08168-D6 (scFv, V domains shown)
VH: B4 VH with V48I
VL: B4 VL with T21S
EC50 [1]: 1.24 nM | IC50 by STF assay for Wnt1 inhibition (human LRP6): 0.74 nM

B6: MOR08168 Fab (Fab, V domains shown)
VH: B4 VH with M34I
VL: B4 VL with T21S
notes: HuCAL Fab expressed in E. coli; also called Propeller 1 anti-LRP6 Fab MOR08168
EC50 (cynomolgus LRP6): 0.88 nM

B7: scFv08168-D9 (scFv, V domains shown)
VH: B4 VH
VL: B4 VL with T21S, G61V
EC50 [1]: 1.26 nM | IC50 by STF assay for Wnt1 inhibition (human LRP6): 11.1 nM

B8: scFv08168-D8 (scFv, V domains shown)
VH: B4 VH
VL: B4 VL with T21S, V45L
EC50 [1]: 0.91 nM

B9: MOR08193 Fab (Fab, V domains shown)
VH: QVQLKESGPALVKPTQTLTLTCTFSGFSLSNRGGGVGWIRQPPGKALEWLAWIDWDDDKSYSTSLKTRLTISKDTSKNQVVLTMTNMDPVDTATYYCARMHLPLVFDSWGQGTLVTVSS
VL: DIVLTQSPATLSLSPGERATLSCRASQFIGSRYLAWYQQKPGQAPRLLIYGASNRATGVPARFSGSGSGTDFTLTISSLEPEDFAVYYCQQYWSIPITFGQGTKVEIKR
notes: also called Propeller 3 anti-LRP6 Fab MOR08193
EC50 (cynomolgus LRP6): 0.2 nM

B12: scFv08168-D4 (scFv)
chain: B10 chain with F34M, A49S, G50S
EC50 [1]: 1.47 nM
